From paper PMC8041869

Key:
[1] = target: SARS-CoV-2 S-protein receptor-binding domain (SARS-CoV-2) (UniProt P0DTC2); assay: BLI
[2] = target: SARS-CoV-2 S-protein receptor-binding domain (SARS-CoV-2) (UniProt P0DTC2); assay: ELISA

Substance “human ACE2 extracellular domain, E37K variant, Fc-tagged dimeric form (from UniProt Q9BYF1-1 18-615) (Fc fusion)” has a Kd [1] of 22.7 nM and an EC50 [2] of 15.8 nM.
